Read-outs that look alike come from different tables or passages of the source.

Assay [1] concerns the target HER2 on HER2-expressing BT474 and SKOV-3 cells (human (endogenous in BT474 and SKOV-3)) (UniProt P04626). Briefly: radioligand binding.
For assay [2], the target named is HER2 (antigen of the Lindmo immunoreactive fraction assay; form not told). Briefly: Lindmo assay.
The target in assay [3] is HER2 on HER2-expressing BT474 and SKOV-3 cells (human (endogenous in BT474 and SKOV-3)) (UniProt P04626). Briefly: radioligand binding. The source holds these as a separate data set.

Substance [^125I]MEGMIB-5F7GGC (VHH) showed a percent associated with cells after 1 h at 4 °C in assay [1] of 5.8%.
[^177Lu]Lu-DOTA-PODS-5F7GGC (VHH) gave an immunoreactive fraction in assay [2] of 71.2%.
Take [^211At]MEAGMB-5F7GGC (VHH): in assay [1], the Kd is 3.4 nM. In assay [2], this substance gave an immunoreactive fraction of 69%.
Take iso-[^131I]GMIB-PODS-5F7GGC (VHH): in assay [1], the Kd stood at 5.9 nM and the percent of input activity bound to cells after 1 h at 4 °C was found to be 7.4%. The substance further yielded an immunoreactive fraction in assay [2] of 84%. This substance also showed a Kd in assay [3] of 3.3 nM.
On to iso-[^211At]AGMB-PODS-5F7GGC (VHH), for which the percent of input activity bound to cells after 1 h at 4 °C in assay [1] is 7.5%. This substance had an immunoreactive fraction in assay [2] of 85.8%.

Values taken from paper PMC10244946.
